Source: PMC5964048

Molecular target: Fluorescein-labeled murine N-WASP-VCA (a.a. 399-501) (murine) (UniProt Q91YD9)
Assay: fluorescence polarisation

ACD-cross-linked actin oligomers (from UniProt P68135 1-377)
Kd: 8 nM
